Among the data in US20230265175A1 are EC50 (read off the curve) values, retold here.

The experiment deals with PD17(p)PS413 (24AWF). The experiment can be described thus: peptide-coated ELISA (plate coated with 1 µg/ml peptide 24AWF, anti-human IgG-HRP, ABTS, OD405). On the technique in general: In an ELISA, binding on a coated surface is turned into a signal by an enzyme label.

B1: V5-AFM-hIgG4-S228P (antibody, V domains shown)
VH: EVQLVESGGGLVQPGGSLRLSCAASGFTFSSFALNWVRQAPGKGLEWVGHIRSKTNNYVTFYAASVKGRFTVSRDDSQNTAYLQMNSLKTEDTATYYCVRRGPRDSWFGYWGQGTLVTVSS
VL: DIVMTQSPLSLPVTLGEPASISCRSSQKIVHRNANTYLEWYLQKPGQSPQLLIYTVSNRFSGVPDRFSGSGSGTDFTLKISRVEAEDLGVYYCFQGSYLPLTFGGGTKVEIKR
The term EC50 (read off the curve) denotes the concentration needed to bring the measured effect to its halfway point. Read a low EC50 (read off the curve) as an effect from little substance. In turn, B1 yielded an EC50 (read off the curve) of 0.04 µg/mL.
